Substitutions are numbered along the chain they refer to. Like-named read-outs stand apart in the source and are kept apart here.

Assay [1] deals with T1, Claudin 18.2 (human) (human).
T1 construct: Multispanning membrane protein; also called hsCLDN18.2
The experiment in a line: flow cytometry, antibody titration on HEK-293T cells transfected with human CLDN18.2. In general terms: In flow cytometry, cells or beads pass a laser one at a time.
Excerpt: (§1) Fluorescence was detected using an Intellicyt high-throughput flow cytometer (HTFC; Intellicyt, Albuquerque, NM).”).

The target in assay [2] is T1, Claudin 18.2 (human). Briefly: cell binding (MFI), titration on cells with native Claudin 18.2; cell type and species not stated for this figure.
The target of assay [3] is T2, Claudin 18.2 (mouse) (mouse, UniProt P56857 10-264).
T2 construct: Expressed on transfected HEK-293T cells; also called mouse CLDN18.2
T2 chain: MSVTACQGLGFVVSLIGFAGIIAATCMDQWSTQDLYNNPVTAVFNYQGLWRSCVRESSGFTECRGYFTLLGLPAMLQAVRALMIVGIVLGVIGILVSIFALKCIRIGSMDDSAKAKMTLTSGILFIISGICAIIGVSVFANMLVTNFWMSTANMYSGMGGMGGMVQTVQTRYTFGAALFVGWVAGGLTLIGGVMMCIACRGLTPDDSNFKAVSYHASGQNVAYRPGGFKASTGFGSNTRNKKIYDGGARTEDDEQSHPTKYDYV
The experiment in a line: flow cytometry, antibody titration on HEK-293T cells transfected with mouse CLDN18.2.
Excerpt: as §1

The target of assay [4] is T1, Claudin 18.2 (human). The experiment in a line: biolayer interferometry (Octet Red), biotinylated hsCLDN18.2-VLPs on streptavidin tips, antibody in solution, 1:1 model; hsCLDN18.2 on biotinylated VLPs on the biosensor tip.
Description: All biosensor studies were performed in PBS buffer supplemented with 1 mg/mL bovine serum albumin (BSA; PBS-B) at 25° C. using a ForteBio Octet Red biosensor system (Pall-ForteBio, Inc., Menlo Park, CA). […] Antibody binding and dissociation kinetics were determined for serial dilutions of antibody in PBS-B starting at 20 μg/mL. Antibody association was measured for 5 minutes followed by dissociation for up to 45 minutes in buffer. Non-specific binding was assessed using sensor tips with VLPs containing only endogenous proteins (Null VLPs). Data analysis was performed using the Octet data analysis program (v8.1; ForteBio) using a standard 1:1 binding model.
For assay [5], the target named is T1, Claudin 18.2 (human). The experiment in a line: flow cytometry, antibody titration on HEK-293T cells transfected with hsCLDN18.2, APC-labelled anti-human secondary.
Excerpt: Fluorescence was detected using an Intellicyt high-throughput flow cytometer (HTFC; Intellicyt, Albuquerque, NM).
The target in assay [6] is T3, Claudin 18.2 (cynomolgus) (cynomolgus).
T3 construct: Expressed on transfected HEK-293T cells; also called cynomolgus CLDN18.2
T3 chain: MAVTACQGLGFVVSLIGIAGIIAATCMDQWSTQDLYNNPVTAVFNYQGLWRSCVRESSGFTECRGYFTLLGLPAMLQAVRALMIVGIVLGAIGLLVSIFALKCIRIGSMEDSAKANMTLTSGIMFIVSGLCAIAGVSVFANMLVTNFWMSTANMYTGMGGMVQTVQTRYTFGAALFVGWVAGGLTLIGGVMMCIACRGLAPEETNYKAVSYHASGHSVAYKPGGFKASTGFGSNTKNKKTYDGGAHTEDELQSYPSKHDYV
The experiment in a line: flow cytometry, antibody titration on HEK-293T cells transfected with cynomolgus CLDN18.2.
Excerpt: as §1

Assay [7] concerns the target T2, Claudin 18.2 (mouse). Briefly: flow cytometry, antibody titration on HEK-293T cells transfected with mouse CLDN18.2.
Excerpt: as §1
Assay [8] has as its target T1, Claudin 18.2 (human). Briefly: cell binding (MFI), titration on cells with native Claudin 18.2; cell type and species not stated for this figure. This is another data set of the same source.
In assay [9] the target is T3, Claudin 18.2 (cynomolgus). Briefly: flow cytometry, antibody titration on HEK-293T cells transfected with cynomolgus CLDN18.2.
Excerpt: as §1
Assay [10] deals with T2, Claudin 18.2 (mouse). The experiment in a line: flow cytometry, antibody titration on HEK-293T cells transfected with mouse CLDN18.2.
Excerpt: as §1
Assay [11] addresses T1, Claudin 18.2 (human). The experiment in a line: flow cytometry, antibody titration on HEK-293T cells transfected with human CLDN18.2. The source holds these as a separate data set.
Excerpt: as §1
The target of assay [12] is T1, Claudin 18.2 (human). Briefly: cell binding (MFI), titration on cells with native Claudin 18.2; cell type and species not stated for this figure. This is another data set of the same source.
Assay [13] deals with T3, Claudin 18.2 (cynomolgus). Briefly: flow cytometry, antibody titration on HEK-293T cells transfected with cynomolgus CLDN18.2.
Excerpt: as §1
In assay [14] the target is T1, Claudin 18.2 (human). The experiment in a line: biolayer interferometry (Octet Red), biotinylated hsCLDN18.2-VLPs on streptavidin tips, antibody in solution, 1:1 model. For orientation: Biolayer interferometry detects binding as a change in optical thickness at a sensor tip.

B1: MAb1 (IM-44-09B03-1H1B) (antibody, V domains shown)
VH: EVQLLESGGGLVQPGGSLRLSCAASGFTFSSYGMGWVRQAPGKGLEWVAAITRDSSTNYGAAVKGRATISRDNSKNTLYLQMNSLRAEDTAVYYCAKDASNGYCWYTGRGSYSCGAHHIDAWGQGTLVTVSS
VL: SYELTQPPSVSVSPGQTARITCSGGYNGHYGWYQQKPGQAPVTVIYSNNQRPSGIPERFSGSSSGTTVTLTISGVQAEDEADYYCGGYDSSAGIFGGGTKLTVL
notes: Humanized antibody derived from a chicken scFv; tested as 'purified IgG' (bivalent); The general methods say candidate scFv were converted to human IgG1-Fc (scFv-Fc) format; also called IM-44-09B03-1HB; IM-44-09B03-1HIB
The EC50 (read off the curve) is the concentration that produces a half-maximal response. High values mean a need for much substance, low ones an effect from little substance. In general, Kd refers to the equilibrium constant for the complex coming apart. Consider B1, for which the concentration for a half-maximal effect (EC50 (read off the curve)) with Claudin 18.2 (human) [1] was roughly 4 nM; with Claudin 18.2 (human) [2] it was roughly 0.8 nM; with Claudin 18.2 (mouse) [3] it was roughly 4 nM; in the assay with Claudin 18.2 (human) [5], roughly 5 nM; in assay [6] it was roughly 5 nM. Binding in the assay with Claudin 18.2 (human) [4] was put at a Kd of 0.1 nM.

B2: monovalent form of MAb1 (other)
VH: B1 VH
VL: B1 VL
notes: also called MAb1 monovalent; monomeric MAb1
On to B2, for which the concentration giving a half-maximal response (EC50 (read off the curve)) with Claudin 18.2 (human) [2] is roughly 3 nM.

B3: MAb3 (IM-44-05H06-1HD) (antibody, V domains shown)
VH: EVQLLESGGGLVQPGGSLRLSCAASGFTFRSYAMMWVRQAPGKGLEWVGEISSTGGSTYYGSAVKGRATISRDNSKNTLYLQMNSLRAEDTAVYYCAKSTYGATWKSADSIDAWGQGTLVTVSS
VL: B1 VL with T43L
notes: Humanized antibody derived from a chicken scFv; tested as 'purified IgG' (bivalent); The general methods say candidate scFv were converted to human IgG1-Fc (scFv-Fc) format
As for B3, the entries for the “EC50 (read off the curve)” value (with Claudin 18.2 (mouse) [7]; with Claudin 18.2 (human) [8]; in assay [9]) were roughly 9 nM, roughly 3 nM and roughly 9 nM, respectively. In addition, in the assay with Claudin 18.2 (human) [4], the dissociation constant (Kd) worked out at 1.2 nM.

B4: MAb2 (IM-44-01E10-1HA) (antibody, V domains shown)
VH: EVQLLESGGGLVQPGGSLRLSCAASGFTFSSYGMSWVRQAPGKGLEWVAGIGSSGSDTWYADSVKGRFTISRDNSKNTLYLQMNSLRAEDTAVYYCAKDATNGYCWYTGRGSYSCGAHHIDAWGQGTLVTVSS
VL: SYELTQPPSVSVSPGQTARITCSGGSGSYGYYGWYQQKPGQAPVTVIYGTNKRPSGIPERFSGSSSGTTVTLTISGVQAEDEADYYCGGYDSSAGIFGGGTKLTVL
notes: as for B3
Regarding B4, the “EC50 (read off the curve)” value with Claudin 18.2 (mouse) [10] is roughly 6 nM; with Claudin 18.2 (human) [11], roughly 6 nM; with Claudin 18.2 (human) [12], roughly 4 nM; in [13], roughly 4 nM; in the assay with Claudin 18.2 (human) [5] it was roughly 4 nM. Besides, the Kd with Claudin 18.2 (human) [4] was found to be 0.3 nM.

B5: monovalent form of MAb2 (other)
VH: B4 VH
VL: B4 VL
notes: also called MAb2 monovalent; monomeric MAb2
B5: the half-maximal effective concentration (EC50 (read off the curve)) with Claudin 18.2 (human) [12] was roughly 10 nM.

B6: zolbetuximab (antibody, V domains shown)
VH: QVQLQQPGAELVRPGASVKLSCKASGYTFTSYWINWVKQRPGQGLEWIGNIYPSDSYTNYNQKFKDKATLTVDKSSSTAYMQLSSPTSEDSAVYYCTRSWRGNSFDYWGQGTTLTVSS
VL: DIVMTQSPSSLTVTAGEKVTMSCKSSQSLLNSGNQKNYLTWYQQKPGQPPKLLIYWASTRESGVPDRFTGSGSGTDFTLTISSVQAEDLAVYYCQNDYSYPFTFGSGTKLEIK
In the case of B6, the Kd with Claudin 18.2 (human) [14] worked out at 0.3 nM.

The record behind these values is US20230391885A1 (INTEGRAL MOLECULAR, published 2023).
